This data set deals with the molecule itself. Kind of data set: NMR solution structure; 0.6 mM in 5 mM Tris-Cl pH 7.6, 50 mM NaCl, 0.05% NaN3, 308 K; intermolecular distance restraints from a 3D 13C-filtered/13C-separated NOESY on a mixed 12C/13C sample.

B1: carboxy-terminal domain (CTD) fragment of λ Ea22 (102–182) (domain or fragment, bacteriophage λ)
chain: SNEVREDGNQFLVVRHPGKTPVIKHCTGDLEEFLRQLIEQDPLVTIDIITHRYYGVGGQWVQDAGEYLHMMSDAGIRIKGEIETAV
notes: Ea22 of bacteriophage lambda, carboxy-terminal domain, residues 102-182 of the 182-residue protein; gene synthesized by ATUM, in plasmid pD441NH; Uniformly 13C,15N (or 15N) labelled for NMR; a mixed 12C/13C dimer was made by mixing 12C/14N and 13C/15N proteins 1:1 in 6 M urea and diluting rapidly; Dimer printed as 21.4 kDa; also called λ Ea22 CTD; Ea22 CTD; not shown: 6xHis, N-terminal, kept
With B1, the “stoichiometry N” value was 2.

Source of the values: paper PMC10834534, “The NMR structure of the Ea22 lysogenic developmental protein from lambda bacteriophage” (Scientific Reports, 2024).
